From patent US20230176070A1

B1: G8 (VHH)
VHH: QVQLVESGGGLVQAGGSLRLSCAASGITSSIASMGWFRQAPGKEEEFVARIRWNTDNTYYADSVKGRFTISRDNAQNTVYLQMNRLKPEDTAVYYCVARRGWSDLLYDYRGQGTQVTVSS
B2: G23 (VHH)
VHH: QVQLVESGGGLVQPGGSLRLSCAASGFTFSVNTMSWVRQAPGKGREWVSGIESHGNTYYSDSVKGRFTISRDNAKNTLYLQMNSLKPEDTAVYYCATGIYGTTRNWGQGTQVTVSS
B3: G41 (VHH)
VHH: DVQLVESGGGLVQAGGSLRLSCVASGHTVSNYAMAWFRQAPGKEREFVAGISWRASITYYRDSVKGRFTISRDNAKNTVYLQMSSLKPEDTAVYYCASDKTHYVSRGTSLVEYDYWGQGTQVTVSS
B4: G30 (VHH)
VHH: QVQLVESGGGLVQAGGSLRLSCAASGRTINNYDMGWFRQAPGKEREFVAAITWSGRDTNYADSVKGRFTVSRDDAKNTVYLQMNTLSPEDTAVYYCASARIQFYRLVAATRTDYSYWGQGTQVTVSS
B5: G93 (VHH)
VHH: QVQLVESGGGLVQPGGSLRLSCAASGSGFSSSIIGWHRQAPGKQRELVAAIGGPGSTNYADSVKGRFTISRDNAKNTAYLQMNNLKPEDSAVYYCEATTRSGREYWGQGTQVTVSS
B6: G14 (VHH)
VHH: EVQLVESGGGLVQAGGSLRLSCAASGSTFDTNPIGWYRQAPGKQRDLVAMITSGGHTNYADSVKGRFTISRDNAKNTVYLQMNSLKPEDTAVYYCTVPHYREDGYEYHFWGQGTQVTVSS
B7: G15 (VHH)
VHH: QVQLVESGGGLVQAGGSLRLSCAASGSTFDTNPIGWYRQAPGKQRDLVAMITSGGHTNYADSVKGRFTISRDNAKNTVYLQMNSLKPEDTAVYYCTVPHYREDGYEYHCWGQGTQVTVSS
B8: G19 (VHH)
VHH: QVQLVESGGGLVQAGGSLRLSCAASGSTFSTNAVDWYRQAPGNQRDLVATITSGGHTNYADSVKGRFTISRDNAKNTVYLQMNSLKPEDTAVYYCAVPHYREDGYEYRFWGQGTQVTVSS
B9: G49 (VHH)
VHH: EVQLVESGGGLVQAGGSLRLSCAASRSTFSINAAGWYRQAPGKQRELVAAISSGGSANYADSVKGRFIISRDNAKNTVYLQMNSLKPEDTAVYYCRVPYYRDDGYEYYSWGQGTQVTVSS
B10: G37 (VHH)
VHH: EVQLVESGGGLVQAGDSLRLSCVASGDTFTSYTVGWFRQAPGKEQEFVAGISWSGRSTDYADFVKGRATISKDIAKVSLQMNALKPEDTAVYSCAAKKVDWSSDYVTNYDYDYRGRGTQVTVSS
B11: G50 (VHH)
VHH: EVQLVESGGGLVQAGGSLRLSCAASGRTFSRYHMGWFRQAPGKERDVVAAISWSGDSTYYADSVKGRFTISKDNAKNTVYLQMDSLKPEDTAVYYCATLSGWDGDTIFPAGSWGQGTQVTVSS
B12: G27 (VHH)
VHH: DVQLVESGGDLVQAGGSLRLSCSASGNIFKINDMDWYRQAPGKQRELVARISSSGSTNYADSVKGRFTISRDNGKNTVYLQMNRVKPEDTAVYYCNADVQVSRNYEYEYWGQGTQVTVSS
B13: G89 (VHH)
VHH: EVQLVESGGGLVQAGGSLSLSCAASGSINSINAMGWFRQAPGKQRELVATITRGGSTNYADSVKGRFTISIDNAKNTVYLQMNSLKPEDTAVYYCNADRGTDDGWLYDYWGQGTQVTVSS
B14: G79 (VHH)
VHH: DVQLVESGGGLVQAGGSLRLSCATSGRTFSTYAAGWFRQRPGKEREFVATIHWNDGRTLYADSVKGRFTLSRDNAQNTVYLQMNSLKPEDTAVYYCAAYTYRIGSYDVSTSQGYDYWGQGTQVTVSS
B15: G98 (VHH)
VHH: QVQLVESGGGLVQAGDSLRLSCATSGRTFSTYAAGWFRQRPGKEREFVATIHWNDGRTLYADSVKGRFTLSRDNAQNTVYLQMNSLKPEDTAVYYCAASTYRIGSYDVSTSQGYDYWGQGTQVTVSS
B16: G43 (VHH)
VHH: EVQLVESGGGLVQAGGSLRLSCATSGRTSSTYAMGWFRQRPGKEREFVATIHWGVGSTIYADSVKGRFTLSRDNAQNTVYLQMNSLKPEDTAVYYCAASTYRIGSYDVSTSQGYNYWGQGTQVTVSS
B17: G25 (VHH)
VHH: EVQLVESGGGLVQAGGSLRLSCAASGRTFSGRTFSDYPMAWFRQAPGKEREFLATISTSGSRTYYADSVKGRFTISRDNAKDTVYLQMNSLKPEDAAIYYCAARQGSYYSDYNRALPGEYDYWGQGTQVTVSS
B18: G45 (VHH)
VHH: EVQLVESGGGLVQPGGSLRLSCAASGSIFSINSMGWYRQAPGKQRELVAAITSGGSTNYANSVKGRFTISRNNARNTVWLQMNSLKPEDTAVYYCNADLNVVRGYSGDYHGSSDYWGQGTQVTVSS
B19: G16 (VHH)
VHH: EVQLVESGGGLVQPGGSLRLSCAASGSTFSINAIGWYRQAPGKEREFVAALRWPGNIWYYADFVEGRITISRDNAKNTVYLQMNSLKPEDTAVYYCAARPENRGSYRDAATYDFWGQGTQVTVSS
B20: G86 (VHH)
VHH: EVQLVESGGGLVQAGDSLRLSCAASGRTFSSYTMGWFRQAPGKEREFVAGIRWSGGSTYFTNYEDSVKGRFTISKDNAKNTVFLQMNSLRPEDTAVYYCAFTGHYSTYDSPQRYDYWGQGTQVTVSS
B21: G39 (VHH)
VHH: HVQLVESGGELVQSGSSLRLSCAASGFDLDDYAIGWFRQAPGKEREGVSCTSTSDGPTSYLDSVKGRFTFSRDNAKNTLYLQMNSLKPEDTAVYYCAAISHIFAEDAPAMGLCWDQRSAFWYWGQGTQVTVSS
B22: G96 (VHH)
VHH: DVQLVESGGGLVQAGGSLKLSCAAFGVTFDINTIAWYRQAPGKQREFVAHITSGGTTYYADSVKARFTMSRDSAKNTVYLQMNNLKPEDTAVYYCNVNPTWPYSGEVDYWGQGTQVTVSS
B23: G51 (VHH)
VHH: QVQLVESGGGLVQAGGSLKLSCAASGITFSINTIGWYRQAPGKQREFVAHITSDSTTYYADSVKARFTISRDSAKNTVHLQMNNLKPEDTAVYYCNVNPTWPYGGEVDYWGQGTQVTVSS
B24: G44 (VHH)
VHH: DVQLVESGGGLVQAGGSLRLSCVASGPIFSFSTGGWYRQAPGKQRELVAALTGGGNTNYADSVKGRFTISRDNAKNTVYLQMNLLKPEDTAVYYCQVMYYSGYDGYESTSWGQGTQVTVSS
B25: G90 (VHH)
VHH: DVQLVESGGGLVQAGGSLRLSCAASGLTFSNYAMGWFRQAPGKEREFAAGITWNGGASHYADSVKGRFTISRDNAQNTVYLQMNSLKPEDTAVYYCAARLGSVAYPGLRYDYWGQGTQVTVSS
B26: G42 (VHH)
VHH: HVQLVESGGGFVQAGGSLRLSCEASGRTFNVYTMGWFRQAPGKEREFVGSISWNGGSTYYADSVKGRFTISRDNAKNTVYLQMNSLEPEDTAVYYCAARRQSHLRLDLSVIDAWGKGTQVTVSS
B27: G91 (VHH)
VHH: EVQLVESGGGLVQAGGSLRLSCAASGRTFSDYPMAWFRQALGKEREFLATISTSGSRTMYADSVKGRFTISRDNAKNMMYLQMNSLKPEDAAVYYCAARQGSYYSDYNRALPGEYHYWGQGTQVTVSS
B28: G78 (VHH)
VHH: DVQLVESGGGLVQAGGSLRLSCTASQSILYINVMGWYRQAPGKQRELVAEIPTGGNTDYADSVKGRFTISRDNVKNTVSLQMNSLKPEDTAVYYCNVRGGVLSPYDYWGQGTQVTVSS
B29: G20 (VHH)
VHH: DVQLVESGGGLVQAGGSLRLSCAASERTFSRYMLGWFRQAPGKEREFVGVMGWSDSDTYYGDAVKGRFTISRDNVKNTIYLQMKSLKPEDTAVYYCAASAYGSTRNHKLYEYWGQGTQVTVSS
B30: G80 (VHH)
VHH: QVQLVESGGGLVQAGASLRLSCAASRGTFSSYTMGWFRQAPGKERLFVASISRDGGTTYYADSVKGRFTISRDNAENILYLQMNSLKPEDTAVYYCAAASRHPSTWEVWGLEYYYWGQGTQVTVSS
B31: G97 (VHH)
VHH: EVQLVESGGGLVQAGGSLRLSCTASRSTFRVNPAGWYRQAPGKERELVARITSGGSTNYADSVKGRFTISRDNAKNTVYLQMNSLKPEDTAVYYCNVPCYMEDGYEHDAWGQGTQVTVSS
B32: G12 (VHH)
VHH: QVQLVESGGGLVQAGGSLRLSCAASRSTFRINAAGWYRQAPGKERELVARISSGGSTNYADSVKGRFTISRDNAKNTVYLQMNSLKPEDTAVYYCNVPYYREDGYEYDAWGQGTQVTVSS
B33: G1 (VHH)
VHH: QVQLVESGGGLVQAGGSLRLSCAAPGSTFSTNIIAWYRQPPGKQRELVAAIGGPGSTNYADSVKGRFTISRDNAKNTGYLQMKSLKPDDTAVYYCNMVTQRGNEYWGQGTQVTVSS

What follows are binders tested against glutathione S-transferase [GST: P08515] (assay: indirect ELISA, GST coated).
glutathione S-transferase [GST: P08515], sequence (P08515 whole entry): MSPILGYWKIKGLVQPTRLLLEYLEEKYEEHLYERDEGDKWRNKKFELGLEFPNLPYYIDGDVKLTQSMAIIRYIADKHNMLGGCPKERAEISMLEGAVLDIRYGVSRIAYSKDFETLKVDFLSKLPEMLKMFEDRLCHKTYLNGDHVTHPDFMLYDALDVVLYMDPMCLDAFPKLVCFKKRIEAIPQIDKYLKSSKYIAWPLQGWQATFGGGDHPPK

Binder	ELISA affinity (LogIC50 (oD450nm))
B1	4.66
B2	2.54
B3	1.02
B4	4.86
B5	2.16
B6	5.27
B7	4.61
B8	9
B9	5.54
B10	1.78
B11	1.09
B12	1.36
B13	5.74
B14	2.07
B15	4.67
B16	4.32
B17	1.57

Binder	ELISA affinity (LogIC50 (oD450nm))
B18	3.17
B19	5.68
B20	5.54
B21	1.65
B22	6.77
B23	4.45
B24	3.06
B25	5.83
B26	2.63
B27	1.15
B28	2.08
B29	2.43
B30	4.43
B31	3.3
B32	4.21
B33	2.93
